The results in this text go back to patent US8642734.

The series in a line: dynamic light scattering; self-association of NT below pH 6.4.

B1: NT, N-terminal fragment of major ampullate spidroin (MaSp) 1 from Euprosthenops australis (protein)
chain: GSGNSHTTPWTNPGLAENFMNSFMQGLSSMPGFTASQLDDMSTIAQSMVQSIQSLAAQGRTSPNKLQALNMAFASSMAEIAASEEGGGSLSTKTSSIASAMSNAFLQTTGVVNQPFINEITQLVSMFAQAGMNDVSA
B1: the “hydrodynamic size of polymers” value is “polymers with a hydrodynamic size of ˜700 nm below pH 6.4”.
